Experimental data taken from patent US20150353645A1.

B1: human anti-GD2 monoclonal antibody 2E12 (antibody, human IgM, V domains shown)
VH: QVQLLESGAEVKKPGASVKVSCKASGYTFTSYAMHWVRQAPGQRLEWMGWINAGNGNTIYSQKFQARVTITRDTSASTAYMELSSLRSEDTAVYYCARWVGGVASYFDYWGQGTLVTVSS
VL: EIVLTQSPLSLSVTPGEPASISCRSSQSLLHRNGYNYFDWYLQQPGQSPQLLIYLGSNRASGVPDRFSGSGSGTDFTLKISRVEAEDVGVYYCMQALQTPYTFGQGTKLEIK
B2: human anti-GD2 monoclonal antibody 31F9 (antibody, human IgG1, V domains shown)
VH: QVQLLESGAEVKKPGASVKVSCEASGYTFTSSDINWVRQATGQGLEWMGWMNPNSGNTGYAQKFQGRVTMTRNTSISTAYMELSSLRSEDTAVYYCARERPRRRGGGFDIWGQGTMVTVSS
VL: DIRMTQSPSSLSASVGDRVTITCRASQGISNYLAWYQQKPGKVPKFLIYAASTLQSGVPSRFSGSGSGTDFTLTISSLQPEDVATYYCQKYNSAPWTFGQGTKVEIK

Tests used:
[1] = molecular target: MUC1 peptide-biotin (cat#353951, American Peptide Company); assay: ELISA at 2 ug/ml mAb (IgM), MUC1 peptide-biotin on NeutrAvidin; PBS background 0.12
[2] = molecular target: MUC1 peptide-biotin (cat#353951, American Peptide Company); assay: ELISA at 2 ug/ml mAb, MUC1 peptide-biotin on NeutrAvidin; PBS background 0.08

Binder	ELISA signal (unit not given) [1]	ELISA signal (unit not given) [2]
B1	0.09	
B2		0.08
